# Laboratory results from patent US20100267005A1.
# Target: H6GY-titin I28 protein
# Assay: sedimentation equilibrium, 3 loading concentrations, ten fold molar excess of Ni2+; Ni(II)-mediated self-association (monomer-dimer)
substance,measurement,value
H6GY-titin I28 protein,Kd,200 µM
